No end group written: not given here. *: point of attachment. Oxazole(5-CO) = O=C(c1cnco1)*; Crotonyl(E) = C/C=C/C(=O)*; 2Furoyl = O=C(c1ccco1)*; Cbz = O=C(OCc1ccccc1)*
T1: AF9 YEATS domain, His-AF9 (1-138) (human, UniProt P42568 1-138)
T1 construct: Expressed in E. coli; not shown: His tag
T1 sequence (looked up): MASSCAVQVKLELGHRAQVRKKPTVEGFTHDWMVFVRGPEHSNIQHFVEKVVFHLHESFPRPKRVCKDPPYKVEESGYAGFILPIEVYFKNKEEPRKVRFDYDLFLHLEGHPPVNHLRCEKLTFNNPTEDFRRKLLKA

T2: ENL YEATS domain, His-SUMO-ENL (1-138) (human, UniProt Q03111 1-138)
T2 construct: Expressed in E. coli; not shown: His-SUMO tag
T2 sequence (looked up): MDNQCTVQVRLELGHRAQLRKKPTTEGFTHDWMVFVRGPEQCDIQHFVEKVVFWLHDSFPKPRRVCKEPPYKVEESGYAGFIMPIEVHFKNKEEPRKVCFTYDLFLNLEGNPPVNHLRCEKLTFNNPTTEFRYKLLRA

B1: compound 85 (positive control), H3K9cr peptide (peptide)
peptide: KQTARK(Crotonyl(E))STGG-NH2
modifications: N-terminus assumed
SMILES: C/C=C/C(=O)NCCCC[C@H](NC(=O)[C@H](CCCNC(=N)N)NC(=O)[C@H](C)NC(=O)[C@@H](NC(=O)[C@H](CCC(N)=O)NC(=O)[C@@H](N)CCCCN)[C@@H](C)O)C(=O)N[C@@H](CO)C(=O)N[C@H](C(=O)NCC(=O)NCC(N)=O)[C@@H](C)O
B2: compound 13 (XL-13) (peptide)
peptide: KQTARK(Oxazole(5-CO))STGG-NH2
modifications: N-terminus assumed
SMILES: C[C@H](NC(=O)[C@@H](NC(=O)[C@H](CCC(N)=O)NC(=O)[C@@H](N)CCCCN)[C@@H](C)O)C(=O)N[C@@H](CCCNC(=N)N)C(=O)N[C@@H](CCCCNC(=O)c1cnco1)C(=O)N[C@@H](CO)C(=O)N[C@H](C(=O)NCC(=O)NCC(N)=O)[C@@H](C)O
notes: also called 4.13
B3: compound 7 (XL-07) (peptide)
peptide: KQTARK(2Furoyl)STGG-NH2
modifications: N-terminus assumed
SMILES: C[C@H](NC(=O)[C@@H](NC(=O)[C@H](CCC(N)=O)NC(=O)[C@@H](N)CCCCN)[C@@H](C)O)C(=O)N[C@@H](CCCNC(=N)N)C(=O)N[C@@H](CCCCNC(=O)c1ccco1)C(=O)N[C@@H](CO)C(=O)N[C@H](C(=O)NCC(=O)NCC(N)=O)[C@@H](C)O
notes: also called 4.7
B4: compound 43 (competitor R8-K) (peptide)
peptide: Cbz-QTAKK(2Furoyl)-NH2
SMILES: C[C@H](NC(=O)[C@@H](NC(=O)[C@H](CCC(N)=O)NC(=O)OCc1ccccc1)[C@@H](C)O)C(=O)N[C@@H](CCCCN)C(=O)N[C@@H](CCCCNC(=O)c1ccco1)C(N)=O
notes: Full structure only as drawing
B5: compound 45 (competitor R8-Q) (peptide)
peptide: Cbz-QTAQK(2Furoyl)-NH2
SMILES: C[C@H](NC(=O)[C@@H](NC(=O)[C@H](CCC(N)=O)NC(=O)OCc1ccccc1)[C@@H](C)O)C(=O)N[C@@H](CCC(N)=O)C(=O)N[C@@H](CCCCNC(=O)c1ccco1)C(N)=O
notes: as for B4
B6: compound 49 (competitor A7-W) (peptide)
peptide: Cbz-QTWRK(2Furoyl)-NH2
SMILES: C[C@@H](O)[C@H](NC(=O)[C@H](CCC(N)=O)NC(=O)OCc1ccccc1)C(=O)N[C@@H](Cc1c[nH]c2ccccc12)C(=O)N[C@@H](CCCNC(=N)N)C(=O)N[C@@H](CCCCNC(=O)c1ccco1)C(N)=O
notes: as for B4
B7: compound 47 (competitor A7-L) (peptide)
peptide: Cbz-QTLRK(2Furoyl)-NH2
SMILES: CC(C)C[C@H](NC(=O)[C@@H](NC(=O)[C@H](CCC(N)=O)NC(=O)OCc1ccccc1)[C@@H](C)O)C(=O)N[C@@H](CCCNC(=N)N)C(=O)N[C@@H](CCCCNC(=O)c1ccco1)C(N)=O
notes: as for B4
B8: compound 55 (competitor T6-S) (peptide)
peptide: Cbz-QSARK(2Furoyl)-NH2
SMILES: C[C@H](NC(=O)[C@H](CO)NC(=O)[C@H](CCC(N)=O)NC(=O)OCc1ccccc1)C(=O)N[C@@H](CCCNC(=N)N)C(=O)N[C@@H](CCCCNC(=O)c1ccco1)C(N)=O
notes: as for B4
B9: compound 53 (competitor T6-A) (peptide)
peptide: Cbz-QAARK(2Furoyl)-NH2
SMILES: C[C@H](NC(=O)[C@H](C)NC(=O)[C@H](CCC(N)=O)NC(=O)OCc1ccccc1)C(=O)N[C@@H](CCCNC(=N)N)C(=O)N[C@@H](CCCCNC(=O)c1ccco1)C(N)=O
notes: as for B4
B10: peptide control (competitor control) (peptide)
peptide: Cbz-QTARK(2Furoyl)-NH2
SMILES: C[C@H](NC(=O)[C@@H](NC(=O)[C@H](CCC(N)=O)NC(=O)OCc1ccccc1)[C@@H](C)O)C(=O)N[C@@H](CCCNC(=N)N)C(=O)N[C@@H](CCCCNC(=O)c1ccco1)C(N)=O
B11: compound 4 (XL-04) (peptide)
peptide: KQTARKSTGG-NH2
modifications: not fully specified (residue 6); also: Lys6 acylated with group R, structure drawing only
notes: also called 4.4
B12: compound 25 (XL-07i) (peptide)
peptide: H-KQTARK(2Furoyl)-NH2
SMILES: C[C@H](NC(=O)[C@@H](NC(=O)[C@H](CCC(N)=O)NC(=O)[C@@H](N)CCCCN)[C@@H](C)O)C(=O)N[C@@H](CCCNC(=N)N)C(=O)N[C@@H](CCCCNC(=O)c1ccco1)C(N)=O
notes: also called 4.7i
B13: compound 24 (XL-07h) (peptide)
peptide: H-QTARK(2Furoyl)-NH2
SMILES: C[C@H](NC(=O)[C@@H](NC(=O)[C@@H](N)CCC(N)=O)[C@@H](C)O)C(=O)N[C@@H](CCCNC(=N)N)C(=O)N[C@@H](CCCCNC(=O)c1ccco1)C(N)=O
notes: also called 4.7h
B14: compound 10 (XL-10) (peptide)
peptide: KQTARKSTGG-NH2
modifications: not fully specified (residue 6); also: Lys6 acylated with group R, structure drawing only
notes: also called 4.10
B15: compound 12 (XL-12) (peptide)
peptide: KQTARKSTGG-NH2
modifications: not fully specified (residue 6); also: Lys6 acylated with group R, structure drawing only
notes: also called 4.12
B16: compound 2 (XL-02) (peptide)
peptide: KQTARKSTGG-NH2
modifications: not fully specified (residue 6); also: Lys6 acylated with group R, structure drawing only
notes: also called 4.2
B17: compound 15 (XL-15) (peptide)
peptide: KQTARKSTGG-NH2
modifications: not fully specified (residue 6); also: Lys6 acylated with group R, structure drawing only
notes: also called 4.15
B18: compound 11 (XL-11) (peptide)
peptide: KQTARKSTGG-NH2
modifications: not fully specified (residue 6); also: Lys6 acylated with group R, structure drawing only
notes: also called 4.11
B19: compound 16 (XL-16) (peptide)
peptide: KQTARKSTGG-NH2
modifications: not fully specified (residue 6); also: Lys6 acylated with group R, structure drawing only
notes: also called 4.16
B20: compound 3 (XL-03) (peptide)
peptide: KQTARKSTGG-NH2
modifications: not fully specified (residue 6); also: Lys6 acylated with group R, structure drawing only
notes: also called 4.3

These binders were tested against T1, AF9 YEATS domain, His-AF9 (1-138) (assay: ITC).
Binder B1 has a Kd of 14800 nM.
B2 was tested, and the “fold binding enhancement over the native crotonyl group (H3K9cr)” value was 14.8 fold.
With B3 the “fold binding enhancement over the native crotonyl group (H3K9cr)” value was 4.5 fold.

Target: T1, AF9 YEATS domain, His-AF9 (1-138)
Test: ITC
Remark: another data set of the same source
For B1, the Kd was 14700 nM, the “N (sites)” value was 0.96 sites and the ΔH was -11.9 kcal/mol. It also gave a ΔS of -17.8 cal/mol/deg.
With B2 the Kd was 1000 nM, the “N (sites)” value was 1.04 sites and the ΔH was -12.3 kcal/mol. The ΔS was -13.8 cal/mol/deg.
In the case of B3, the Kd is reported as 3300 nM, the “N (sites)” value is reported as 0.91 sites and the ΔH is reported as -12.2 kcal/mol. It also gave a ΔS of -15.9 cal/mol/deg.

The binders below were run against T1, AF9 YEATS domain, His-AF9 (1-138) (assay: photo-cross-linking competition screen at 0.3 µM, in-gel fluorescence).
B4: binds.
B5: binds.

What follows are binders tested against T1, AF9 YEATS domain, His-AF9 (1-138) (assay: photo-cross-linking competition vs photoaffinity probe, in-gel fluorescence).
B6 was tested, and the IC50 was 315 nM.
With B7 the IC50 was 338 nM.
B8 showed an IC50 of 778 nM.
B9 gave an IC50 of 715 nM.
QTARK(2Furoyl)-NH2 (not fully specified (N-terminus), Full structure only as drawing) [compound 74 (competitor Cbz-4)] was tested, and the IC50 was 226 nM.
B10 was tested, and the IC50 was 189 nM.

Target: T1, AF9 YEATS domain, His-AF9 (1-138)
Test: as above
Remark: another data set of the same source
B11 was tested, and the IC50 was 22200 nM.
KQTARK(3‑furancarbonyl)STGG-NH2 (also called 4.8) [compound 8 (XL-08)] gave an IC50 of 1700 nM.
With B12 the IC50 was 460 nM.
In the case of KQTARK(2‑pyrimidinecarbonyl)STGG-NH2 (also called 4.6) [compound 6 (XL-06)], the IC50 is reported as 3700 nM.
For B13, the IC50 was 4500 nM.
In the case of B6, the IC50 is reported as 320 nM.
B7 showed an IC50 of 340 nM.
Work on B8 yielded an IC50 of 780 nM.
B9 gave an IC50 of 720 nM.
KQTARK(cyclopentanecarbonyl)STGG-NH2 (also called 4.17) [compound 86 (negative control), XL-17] showed an IC50 of 34500 nM.
B14 showed an IC50 of 10600 nM.
In the case of KQTARK(isonicotinoyl)STGG-NH2 (also called 4.5) [compound 5 (XL-05)], the IC50 is reported as 2100 nM.
B1 showed an IC50 of 6000 nM.
Binder B15 has an IC50 of 10400 nM.
QTARK(2Furoyl)-NH2 (not fully specified (N-terminus), Full structure only as drawing) [compound 74 (competitor Cbz-4)] gave an IC50 of 230 nM.
Binder KQTARK(Arg)STGG-NH2 (also: Lys6 acylated with group R, shown only as a drawing, also called 4.9) [compound 9 (XL-09)] has an IC50 of 6500 nM.
With B16 the IC50 was 29800 nM.
B17 was tested, and the IC50 was 24500 nM.
B18 gave an IC50 of 15700 nM.
With KQTARK(4‑oxazolecarbonyl)STGG-NH2 (also called 4.14) [compound 14 (XL-14)] the IC50 was 3000 nM.
B2 was tested, and the IC50 was 740 nM.
For B3, the IC50 was 1300 nM.
B19 gave an IC50 of 12600 nM.
B20 was tested, and the IC50 was 22100 nM.

What follows are binders tested against T2, ENL YEATS domain, His-SUMO-ENL (1-138) in the same assay as above.
B1 showed an IC50 of 52700 nM.

Source: patent US20210277061A1 (UNIVERSITY OF HONG KONG, published 2021)
